Measured values published in article doi:10.1101/2021.12.01.470723 (bioRxiv, 2021).
Substitutions are numbered along the chain they refer to. Numbers in names are those of the source.

Experiments:
[1] = target: the molecule itself; assay: SEC; Bri2 BRICHOS species after thrombin removal of His6-NT* from the fusion protein's monomer, dimer and oligomer fractions; 20 mmol L^-1 NaPi, 0.2 mmol L^-1 EDTA
[2] = target: the molecule itself; assay: SEC; rh Bri2 BRICHOS D148N monomer fraction at 0.5, 1, 5, 10, 15 and 100 µmol L^-1; monomer to dimer
[3] = target: the molecule itself; assay: other fluorescence titration; Trp fluorescence of 2 µmol L^-1 rh Bri2 BRICHOS T206W monomers, 20 mmol L^-1 NaPi, 0.2 mmol L^-1 EDTA, pH 6.3-8.0; excitation 280 nm; monomer to dimer
[4] = target: the molecule itself; assay: SEC; purified rh proSP-C BRICHOS variants on Superdex 200 GL

B1: rh Bri2 BRICHOS D148N (domain or fragment, human, UniProt Q9Y287 113-231, looked up)
chain: QTIEENIKIFEEEEVEFISVPVPEFADSDPANIVHNFNKKLTAYLDLNLDKCYVIPLNTSIVMPPRNLLELLINIKAGTYLPQSYLIHEHMVITDRIENIDHLGFFIYRLCHDKETYKL
notes: human integral membrane protein 2B (Bri2), BRICHOS domain, residues 113-231, with D148N; Isolated by SEC as monomer, dimer and oligomer fractions; the assay's format tells which fraction was used; also called D148N mutant; source: E. coli SHuffle T7, purified (Ni-NTA, thrombin cleavage, second Ni-NTA, SEC); not shown: His6, N-terminal, cleaved; NT* solubility tag, N-terminal, cleaved
B1 was tested, and the “stoichiometry N” value [1] was 2 and the “ratio of dimers to monomers at 0.5 µmol L^-1” value [2] was ~1 dimers:monomers.

B2: rh Bri2 BRICHOS T206W (domain or fragment, human, UniProt Q9Y287 113-231, looked up)
chain: B1 chain with N36D, T94W
notes: human integral membrane protein 2B (Bri2), BRICHOS domain, residues 113-231, with T206W; Monomer and dimer fractions were used for Trp fluorescence; also called rh Bri2 BRICHOS Trp mutant; source: E. coli SHuffle T7, purified (Ni-NTA, thrombin cleavage, second Ni-NTA, SEC); not shown: His6, N-terminal, cleaved; NT* solubility tag, N-terminal, cleaved
B2: binds [3].

B3: recombinant human (rh) wildtype proSP-C BRICHOS (domain or fragment, UniProt P11686 86-197, looked up)
chain: EHLVTTATFSIGSTGLVVYDYQQLLIAYKPAPGTCCYIMKIAPESIPSLEALTRKVHNFQMECSLQAKPAVPTSKLGQAEGRDAGSAPSGGDPAFLGMAVSTLCGEVPLYYI
notes: human prosurfactant protein C (proSP-C), BRICHOS domain, residues 86-197; By SEC mainly a trimer, with some dimers and monomers; also called rh proSP-C BRICHOS; wt proSP-C BRICHOS; source: E. coli Origami 2 (DE3) pLysS, purified (Ni-NTA, ion exchange QFF; thrombin cleavage); not shown: thioredoxin, N-terminal, cleaved
B3 was tested, and the “stoichiometry N” value [4] was 3.

B4: rh proSP-C BRICHOS D105N (domain or fragment, human, UniProt P11686 86-197, looked up)
chain: B3 chain with D20N
notes: human prosurfactant protein C (proSP-C), BRICHOS domain, residues 86-197, with D105N; By SEC a trimer, with more dimers and less monomers than the wildtype; also called D105N mutant; source: E. coli Origami 2 (DE3) pLysS, purified (Ni-NTA, ion exchange QFF; thrombin cleavage); not shown: thioredoxin, N-terminal, cleaved
For B4, the “stoichiometry N” value [4] was 3.
